Measured values published in patent US20250101100A1.
One block for each binder: values may come before it.

What was measured:
[1] = target: human NKG2A-CD94 heterodimer (extracellular domains) (human) (UniProt Q13241); test: SPR Biacore T200, 37 °C, antibody captured by anti-human Fc on C1 chip, hNKG2A-hCD94 as analyte
[2] = target: mouse NKG2A on cells (mouse); test: binding to mNKG2A-expressing CHO cells
[3] = target: mouse NKG2A on cells (mouse); test: blockade of Qa-1b tetramer binding to mNKG2A-expressing CHO cells
[4] = target: cynomolgus monkey NKG2C on CHO cells (cynomolgus monkey); test: cell binding on CHO-cyno NKG2C cells

Chain of human NKG2A-CD94 heterodimer (extracellular domains) (human) (chain, as listed by the source, chain 1 of 2): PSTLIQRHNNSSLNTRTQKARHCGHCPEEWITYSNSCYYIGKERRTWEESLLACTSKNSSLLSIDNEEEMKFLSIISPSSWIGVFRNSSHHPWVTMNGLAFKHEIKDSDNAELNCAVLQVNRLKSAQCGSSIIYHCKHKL
Chain of human NKG2A-CD94 heterodimer (extracellular domains) (human) (Q13241 32-179, chain 2 of 2): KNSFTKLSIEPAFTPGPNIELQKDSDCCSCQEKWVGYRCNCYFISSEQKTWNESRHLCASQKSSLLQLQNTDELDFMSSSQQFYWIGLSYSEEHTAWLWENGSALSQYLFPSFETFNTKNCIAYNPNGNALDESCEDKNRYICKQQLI

Half-life of Antibody/Analyte Complex [1]: 3 to 4 s
Kd [1]: 25000 pM
koff [1]: 0.2 s⁻¹
kon [1]: 8e+06 M⁻¹ s⁻¹
B1: Z270 (antibody, from another filing, V domains shown)
VH: QVQLQQPGAELVRPGASVKLSCKASGYTFTSYWMNWVKQRPEQGLQWIGRIDPYDSETHYSQKFKDKAILTVDKSSSTAYMRLSSLTSEDSAVYYCARGGYDFDVGTLYWFFDVWGAGTTVTVS
VL: DIQMTQSPASLSASVGETVTITCRASENIYSYLAWYQQKQGKSPQFLVYNAKTLAEGVPSRFSGSGSGTQFSLKINSLQPEDFGSYYCQHHYGTPRTFGGGTKLEIK

EC50 [2]: 300 pM
IC50 [3]: 400 pM
B2: NKG2A.3 antibody (anti-mNKG2A surrogate, mIgG1-D265A) (antibody, V domains shown)
VH: QVQLKQSGAELVKPGASVKISCKTSGYTFTDGYMHWVEQNPGQGLEWIGRIDPDSGYTMYNQKFQDKATLTRDKSSSTVYMELRSLTSEDSAVYYCAINYGEYWYFDFWGQGTQVTVSS
VL: DIVMTQSPSSLAVSAGDKVTINCKSSQTLFSGRYNYLAWYQQKTGQAPKLLIYYTSTRHTGVPGRFIGSGSGTDFTLTINNLQTEDLGNYYCQQHYSTPYTFGAGTNLEIRR

EC50 [4]: 800 pM
B3: NKG2A.9 antibody (antibody, human IgG1, kappa, V domains shown)
VH: EVQLVESGGGLVKPGGSLRLSCAASGFTFSSHSMNWVRQAPGKGLEWVSAISSSSSYIYYADSVKGRFTISRDNAKNSLYLQMNSLRAEDTAVYYCAREEWGLPFDYWGQGTLVTVSS
VL: AIQLTQSPSSLSASVGDRVTITCRASQGISSALAWYQQKPGKAPKLLIYDASSLKSGVPSRFSGSGSGTDFTLTISSLQPEDFATYYCQQFNSYPLTFGQGTRLEIKR
